Experimental data as given in the supplement of paper PMC9170038.

Tests used:
[1] = tested on: K4 kissing-loop RNA reporter; assay: apparent KD of K4 kissing-loop reporter; higher = weaker reporter binding; settings: Eterna round: R107;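 also: bound reporter read as fluorescence of individual clusters on recovered sequencing chips by microscopy, with normalized cluster intensities fitted with a binding model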
Experimental: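 RNA-MaP round R107: designed RNA switches with theophylline, tryptophan, arginine or FMN aptamers are transcribed on-chip within common flanks. They are titrated with a labelled K4 kissing-loop RNA reporter in RNA-MaP buffer (100 mM Tris pH 7.5, 80 mM KCl, 4 mM MgCl2), without ligand or with the indicated ligand. Median apparent KD per design.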

MS2 coat protein = assay: apparent KD of MS2 coat protein; designed switch direction (-1 OFF switch, 1 ON switch): -1; higher = weaker reporter binding
Method in brief: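 Transcription of designed RNA switches on Illumina chips was done by stalled E. coli RNA polymerase. SNAP-549-labelled MS2 coat protein was then titrated in doubling steps from 0.7 or 1.5 nM to 3 µM, with steps of 0.8–1.5 h at the lowest and 10–20 min at the highest concentration. The per-design median over clusters of curve-fitted normalised fluorescence is reported as apparent KD.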

[2] = input ligand: theophylline 20 uM
[3] = input ligand: tryptophan 2.4 mM

Row | Sequence | apparent KD of K4 kissing-loop reporter ([1]; input ligand: FMN 200 uM) [µM] | apparent KD of K4 kissing-loop reporter ([1]; input ligand: arginine 13.2 mM) [µM] | apparent KD of K4 kissing-loop reporter ([1]; input ligand: none) [µM] | apparent KD of K4 kissing-loop reporter [1, 2] [µM] | apparent KD of K4 kissing-loop reporter [1, 3] [µM] | apparent KD of MS2 coat protein (MS2 coat protein; input ligand: FMN 200 uM) [µM] | apparent KD of MS2 coat protein (MS2 coat protein; input ligand: microRNA oligo, concentration not stated) [µM] | apparent KD of MS2 coat protein (MS2 coat protein; input ligand: none) [µM]
1 | UAUAGAAACGUCCUAUCAGUAAAAUGGGAAGGAGCGAGGAAGGACUCAGGUAGGUCGCCCAAUAACCUUAGUGAUGUUAAGGAAA [Version 2] | 0.155 | 0.128 | 0.131 | 0.112 | 0.122 | – | – | –
2 | UACUUAUUUUUUAACUUAAAUUUUUCAGAAGGAGCGUGAUCAUUCACAGGUAGGUCGCUGAACUAGUGAUGUUAGUUUUAAUUUU [JR_Nu_ExcArginiA_Sub024] | 0.0629 | 0.115 | 0.0639 | 0.104 | 0.0565 | – | – | –
3 | AAUAUCUAGUAUAUUUUUAAUAAAACAGAUACCAGUGAUAAUAGACACCCUUGGCAGCUGGUCGAGUGAUGUUCGUUUAUUUUAA [JR_SSTheophyA_Sub005] | 0.0825 | 0.0795 | 0.105 | 0.168 | 0.06 | – | – | –
4 | UCCUAGGACUUCAGGCGAAAGCCCUGCGAAGGAGCGUGCGAAAGCACAGGUAGGUCGCGCAGUGAUGUUGCACCUAGGUAAUAAA [#SwitchBubble 20 #K4Late] | 0.481 | 0.656 | 0.489 | 1.02 | 0.124 | – | – | –
5 | AAUGAUGAUUGACACAUUUACUAAAAGGAAGGAGCGGCGAUGUGGCCAGGUAGGUCGCCUUUUAGCAGUGAUGUUGCUAUAUGUU [JR_Nu_ExcArginiA_Sub026] | 0.0845 | 0.108 | 0.111 | 0.152 | 0.0704 | – | – | –
6 | CGCAAGCAGCCAGUGAUGUUGGCCGCCUUGCGAGGACCGGUACGGCCGCCACUCGAAGGCGGCUACUGAUAAUCCGUCUAACGGA [KL-XTryp-A15] | 0.107 | 0.0854 | 0.102 | 0.0924 | 0.111 | – | – | –
7 | GGAUAGGACAGAGGAUAUCCUUGAGGCAAGAAACUUGUCUCUAAAAGGAUGAACCUAGUGAUGUUAGGAGAAGGCUGUCCUAUCG [FmnBX 13 - #SwitchBubble #StaticStem #Palindromic] | 0.132 | 0.09 | 0.0982 | 0.085 | 0.0959 | – | – | –
8 | CGUUUAUAGCAGGAUACCAGUACCCAUAAAGUACGUUAAUAGUAGAGUGAUGUUCUAAAGUACCCUUGGCAGCUUCCCGUGACCG [ExTheophylB.V] | 0.106 | 0.158 | 0.129 | 0.142 | 0.0833 | – | – | –
9 | AAAAUUAAGGCCGAAUUAACUUCUUGCAUACGAGGACCGGUACGGCCGCCACUCGAGUCAAGUGAUGUUUGACAAUCUAUUAUUA [JR_ExcTryptoA_Sub010] | 0.0812 | 0.124 | 0.11 | 0.138 | 0.128 | – | – | –
10 | GGAUGGUAGGCGGCCGCCACUAAAACAGAACACAUACAAGCCAGUGAUGUUGGUAUGAUGGUGUAUAGGACCGGGCCUAGAUAGA [Exclusion - Tryptophan B (Freestyle 5)] | 0.197 | 0.178 | 0.199 | 0.186 | 0.196 | – | – | –
11 | AAUGUGCAGGGAAGGAGCGUAGUCCAGUGAUGUUGGAGUUAAAUACCAGUGAUGUUGGUUAUACAGGUAGGUCGCCCUAAAGCGC [Exclusion Arginine B Gf 5] | 0.0735 | 0.0677 | 0.0813 | 0.0983 | 0.071 | – | – | –
12 | AUUCUAUGGAGUGAUGUUCCUGUGAUGUCACGAGGACCGGUACGGCCGCCACUCGAUGUAUUGGUUUUUGAAAGAAACAACUGCA [Same State-Tryptophan A] | 0.566 | 0.701 | 0.842 | 0.773 | 0.279 | – | – | –
13 | GGACCUCAGUGAUGUUGAGGUAACGCUGAUACCAGUGACUUAAUUCGCCCUUGGCAGCAGUCCACCGAGGUAUCUGAUUAGGUCU [Default title] | 0.133 | 0.145 | 0.149 | 0.155 | 0.139 | – | – | –
14 | GCGCGCGGCGGAGGAUAUAGCAGGUGAUCCAAGAAAGUGAGUGAUGUUUAUGGAGAUGAUGAUAUGUUAGAAGGCCGCCGCGCGC [abcdefghijklmnopqrstu] | 0.803 | 0.448 | 0.626 | 0.847 | 0.474 | – | – | –
15 | AAAGAUCUUCUAGAAACUAGAAGAUCAAGAGAGGAUAUCCGAAUUCGGAGAAGGCUCGCUAAGUGAUGUUUGGACCCAAAGGGAA [AK3.1 SS FMN A] | 1.1 | 0.984 | 1.18 | 0.753 | 1.13 | – | – | –
16 | AGAACUGUCUUGGAUACCAGUGAUGUUGGUAUCUAUGUGUGAGUGCAAAGCGUCCCACAUUGCCCUUGGCAGCUAAGACUGUUCA [Omei KL Theo B Exc A v2] | 0.154 | 0.132 | 0.146 | 0.216 | 0.145 | – | – | –
17 | CGACGGAGUGAUGUUUCGUGGUAUGCUGAUACCAGAUGAAACAGCGUCCCUUGGCAGCAGCAUACGCCAAGGAUAAUAUCCUAGU [Theo B SS t6] | 1.2 | 0.611 | 1.77 | 0.531 | 0.604 | – | – | –
18 | UUAGUCAGAUUAUUAUUAGCCUGCGAGUCUAAGGAUAUCCGAAUUCGGAGAAGGUAGUGAUGUUACUUUGGCAGGCACUGACAUU [AK9 Exc FMN A] | 0.807 | 0.357 | 0.431 | 0.414 | 0.351 | – | – | –
19 | GGAGUUACCUGGGAUACCAGUCGGAGUCCCAGAGCACAGAGUGAUGUUCUGGGAUGUUUCGGCCCUUGGCAGCUCUGGGACUCCC [#2 Exclusion - Theophylline B Attempt #13 (HarryS)] | 0.482 | 0.254 | 0.142 | 0.402 | 0.222 | – | – | –
20 | CUGUUCCAUGUAGGAUAUGCAUAUUCUCAUUAUGCAGAAGGACAUGAGGAUCACCCAUGUAUGUUAUUAUUAUAUGUUACAUGU [Design 3] (Eterna round: R96, puzzle: Exclusion NG 1) | – | – | – | – | – | 0.633 | 0.0477 | 0.0649
